Test results as given in IntAct's records for PubMed 16938345.

B1: Linker for activation of T-cells family member 1 (Homo sapiens), O43561 (parent)
chain: MEEAILVPCVLGLLLLPILAMLMALCVHCHRLPGSYDSTSSDSLYPRGIQFKRPHTVAPWPPAYPPVTSYPPLSQPDLLPIPRSPQPLGGSHRTPSSRRDSDGANSVASYENEGASGIRGAQAGWGVWGPSWTRLTPVSLPPEPACEDADEDEDDYHNPGYLVVLPDSTPATSTAAPSAPALSTPGIRDSAFSMESIDDYVNVPESGESAEASLDGSREYVNVSQELHPGAAKTEPAALSSQEAEEVEEEGAPDYENLQELN

Variants of: B1
Details: with grb2_human GRB2, P62993

Row | effect of a mutation on the interaction | Variant
1 | decreasing interaction | Y200F;Y220F
